Where “and” joins values, the source holds several entries; their conditions need not be identical. Identical values can stand only once. Like-named read-outs stand apart in the source and are kept apart here.
Assays:
Assay in all cases: cryo-EM structure
[1] = molecular target: Danio rerio calcium homeostasis modulator 1 (drCALHM1) (Danio rerio) (UniProt E7F2J4)
[2] = molecular target: Danio rerio calcium homeostasis modulator 1 (drCALHM1) (Danio rerio) (UniProt E7F2J4); remark: listed apart in the source
[3] = molecular target: Danio rerio calcium homeostasis modulator 1 (drCALHM1) (Danio rerio) (UniProt E7F2J4); remark: listed apart in the source

## Danio rerio calcium homeostasis modulator 1 (drCALHM1) (from UniProt E7F2J4 1-346) (natural protein)
[1]
  stoichiometry N: 7 and 8
[2]
  stoichiometry N: 7
[3]
  stoichiometry N: 8

Reference: paper PMC9035704
